These results are taken from article PMC9860181 (Plant Communications, 2022).

Read-outs that look alike come from different tables or passages of the source.

The target in series [1] is T1, UVR8^W285A (residues 12–421) (A. thaliana, UniProt Q9FN03 12-421, W285A).
T1 sequence: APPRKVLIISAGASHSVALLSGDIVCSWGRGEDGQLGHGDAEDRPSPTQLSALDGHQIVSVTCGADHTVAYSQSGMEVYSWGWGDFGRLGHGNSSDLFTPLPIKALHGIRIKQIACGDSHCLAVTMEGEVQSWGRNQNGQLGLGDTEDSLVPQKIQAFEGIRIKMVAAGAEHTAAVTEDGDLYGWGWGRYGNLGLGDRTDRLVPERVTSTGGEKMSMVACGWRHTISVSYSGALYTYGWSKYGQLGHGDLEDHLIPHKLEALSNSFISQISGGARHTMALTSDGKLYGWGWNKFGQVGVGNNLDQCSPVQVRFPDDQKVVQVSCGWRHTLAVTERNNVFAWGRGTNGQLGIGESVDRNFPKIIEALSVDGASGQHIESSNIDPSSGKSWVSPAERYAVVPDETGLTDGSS
The experiment in a line: crystal structure.

Series [2] concerns the target T2, UVR8^W285A-Strep II (A. thaliana, UniProt Q9FN03 1-440, W285A).
T2 sequence: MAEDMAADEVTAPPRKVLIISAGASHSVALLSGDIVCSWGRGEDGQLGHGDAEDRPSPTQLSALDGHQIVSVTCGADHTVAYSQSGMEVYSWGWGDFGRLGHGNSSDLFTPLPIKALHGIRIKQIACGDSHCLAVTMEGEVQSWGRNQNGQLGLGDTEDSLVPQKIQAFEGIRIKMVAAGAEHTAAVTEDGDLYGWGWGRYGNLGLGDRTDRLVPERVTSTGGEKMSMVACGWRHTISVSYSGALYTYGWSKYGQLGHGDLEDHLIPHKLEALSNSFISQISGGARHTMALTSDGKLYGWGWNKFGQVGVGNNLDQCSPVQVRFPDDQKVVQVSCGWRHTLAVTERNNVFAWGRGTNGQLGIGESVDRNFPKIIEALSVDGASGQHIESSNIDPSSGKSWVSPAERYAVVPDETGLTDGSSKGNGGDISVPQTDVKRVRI
The experiment in a line: pull-down.

The target of series [3] is T2, UVR8^W285A-Strep II. The experiment in a line: pull-down. The source holds these as a separate data set.
Series [4] concerns the molecule itself. The experiment in a line: SDS-PAGE of dimer and monomer.

B1: RUP2 (residues 21–366) (domain or fragment)
chain: RYEWDLSLSTVVSSSSSSASDVIGAIEFDPTDNIVATAGISRKIRFYGLPSLLRNNAVSGTGVSFVDQATACEYYICTPAKLSSLRWRPGSGGRVIGSGDYDGVVMEYDLEKRTPVFERDEHGGRRVWSVDYTRHGGASTVGASGSDDGTMQVWDPRCPPEESVGVVRPAGICRSAVCCVEFDPSGGPAVAVGCADRKGYVYDIRKLVDPALTLQGHTKTVSYVRFLDGGTVVTAGTDGCLKLWSVEDGRVIRTYEGHVNNRNFVGLSVWRNGALFGCGSENNRVFVYDRRWGKPVWVDGFEPVGMNSGSDKRFVSSVCWRQSGVDQCTLVAGGSDGVLQVYVGKR
As for B1, the binding result in series [1] was “binds”.

B2: REPRESSOR OF UV-B PHOTOMORPHOGENESIS 2 (RUP2), C-terminal 3×Flag (natural protein)
chain: MNTLHPHKQQQEQAQQQEEARYEWDLSLSTVVSSSSSSASDVIGAIEFDPTDNIVATAGISRKIRFYGLPSLLRNNAVSGTGVSFVDQATACEYYICTPAKLSSLRWRPGSGGRVIGSGDYDGVVMEYDLEKRTPVFERDEHGGRRVWSVDYTRHGGASTVGASGSDDGTMQVWDPRCPPEESVGVVRPAGICRSAVCCVEFDPSGGPAVAVGCADRKGYVYDIRKLVDPALTLQGHTKTVSYVRFLDGGTVVTAGTDGCLKLWSVEDGRVIRTYEGHVNNRNFVGLSVWRNGALFGCGSENNRVFVYDRRWGKPVWVDGFEPVGMNSGSDKRFVSSVCWRQSGVDQCTLVAGGSDGVLQVYVGKRKP
On to B2, for which, in the series with UVR8^W285A-Strep II [2], the binding result was “binds”.

B3: REPRESSOR OF UV-B PHOTOMORPHOGENESIS 1 (RUP1), C-terminal 3×Flag (natural protein)
chain: MEALFCSEIPNNNIRSSINDLSSSSSYTWPMIMTSSSSSSSSPTIMNIENIPRCDWDLSLSAVVSSASTGSDAIGAIEFDPTGEIIATGGIARKIRSYRLSSLLESRDDHVTASESYICTPAKLSSLKWRPDFSGRVIGSGDYDGVVTEYDVEKQVPVSERDEHGGRRIWSVDYTLYNGSLIGASGSDDGTVQMWDPRNGGTLEETVRPGGGAAICSVEFDPFGGSSIAVGCADRNAYVYDIRRLVDPLIVLDGHTKTVTYARFMDSHTIVTGSTDGSLKQWDIDNGRRVVRTYRGHVNSRNFVGLSVWRHGGLVVSGSENNQVFVYDKRWEEPVWVCGLGHTNRFGSDRRFVSSVCLRQVDEDWCTLVAGGSDGALEIFSGKQS
For B3, the binding result in the series with UVR8^W285A-Strep II [3] is listed as “binds”.

B4: UVR8^N396 (residues 1–396) (domain or fragment)
chain: MAEDMAADEVTAPPRKVLIISAGASHSVALLSGDIVCSWGRGEDGQLGHGDAEDRPSPTQLSALDGHQIVSVTCGADHTVAYSQSGMEVYSWGWGDFGRLGHGNSSDLFTPLPIKALHGIRIKQIACGDSHCLAVTMEGEVQSWGRNQNGQLGLGDTEDSLVPQKIQAFEGIRIKMVAAGAEHTAAVTEDGDLYGWGWGRYGNLGLGDRTDRLVPERVTSTGGEKMSMVACGWRHTISVSYSGALYTYGWSKYGQLGHGDLEDHLIPHKLEALSNSFISQISGGWRHTMALTSDGKLYGWGWNKFGQVGVGNNLDQCSPVQVRFPDDQKVVQVSCGWRHTLAVTERNNVFAWGRGTNGQLGIGESVDRNFPKIIEALSVDGASGQHIESSNIDPSS
As to B4, the binding result in series [4] was “binds”.
